Results published in IntAct's records for PubMed 12679424.

B1: Insulin receptor substrate 1 (Homo sapiens), P35568 (parent)
chain: MASPPESDGFSDVRKVGYLRKPKSMHKRFFVLRAASEAGGPARLEYYENEKKWRHKSSAPKRSIPLESCFNINKRADSKNKHLVALYTRDEHFAIAADSEAEQDSWYQALLQLHNRAKGHHDGAAALGAGGGGGSCSGSSGLGEAGEDLSYGDVPPGPAFKEVWQVILKPKGLGQTKNLIGIYRLCLTSKTISFVKLNSEAAAVVLQLMNIRRCGHSENFFFIEVGRSAVTGPGEFWMQVDDSVVAQNMHETILEAMRAMSDEFRPRSKSQSSSNCSNPISVPLRRHHLNNPPPSQVGLTRRSRTESITATSPASMVGGKPGSFRVRASSDGEGTMSRPASVDGSPVSPSTNRTHAHRHRGSARLHPPLNHSRSIPMPASRCSPSATSPVSLSSSSTSGHGSTSDCLFPRRSSASVSGSPSDGGFISSDEYGSSPCDFRSSFRSVTPDSLGHTPPARGEEELSNYICMGGKGPSTLTAPNGHYILSRGGNGHRCTPGTGLGTSPALAGDEAASAADLDNRFRKRTHSAGTSPTITHQKTPSQSSVASIEEYTEMMPAYPPGGGSGGRLPGHRHSAFVPTRSYPEEGLEMHPLERRGGHHRPDSSTLHTDDGYMPMSPGVAPVPSGRKGSGDYMPMSPKSVSAPQQIINPIRRHPQRVDPNGYMMMSPSGGCSPDIGGGPSSSSSSSNAVPSGTSYGKLWTNGVGGHHSHVLPHPKPPVESSGGKLLPCTGDYMNMSPVGDSNTSSPSDCYYGPEDPQHKPVLSYYSLPRSFKHTQRPGEPEEGARHQHLRLSTSSGRLLYAATADDSSSSTSSDSLGGGYCGARLEPSLPHPHHQVLQPHLPRKVDTAAQTNSRLARPTRLSLGDPKASTLPRAREQQQQQQPLLHPPEPKSPGEYVNIEFGSDQSGYLSGPVAFHSSPSVRCPSQLQPAPREEETGTEEYMKMDLGPGRRAAWQESTGVEMGRLGPAPPGAASICRPTRAVPSSRGDYMTMQMSCPRQSYVDTSPAAPVSYADMRTGIAAEEVSLPRATMAAASSSSAASASPTGPQGAAELAAHSSLLGGPQGPGGMSAFTRVNLSPNRNQSAKVIRADPQGCRRRHSSETFSSTPSATRVGNTVPFGAGAAVGGGGGSSSSSEDVKRHSSASFENVWLRPGELGGAPKEPAKLCGAAGGLENGLNYIDLDLVKDFKQCPQECTPEPQPPPPPPPHQPLGSGESSSTRRSSEDLSAYASISFQKQPEDRQ

Variants of: B1
Details: with p85a_mouse Pik3r1, P26450
p85a_mouse Pik3r1, P26450, sequence (P26450 whole entry): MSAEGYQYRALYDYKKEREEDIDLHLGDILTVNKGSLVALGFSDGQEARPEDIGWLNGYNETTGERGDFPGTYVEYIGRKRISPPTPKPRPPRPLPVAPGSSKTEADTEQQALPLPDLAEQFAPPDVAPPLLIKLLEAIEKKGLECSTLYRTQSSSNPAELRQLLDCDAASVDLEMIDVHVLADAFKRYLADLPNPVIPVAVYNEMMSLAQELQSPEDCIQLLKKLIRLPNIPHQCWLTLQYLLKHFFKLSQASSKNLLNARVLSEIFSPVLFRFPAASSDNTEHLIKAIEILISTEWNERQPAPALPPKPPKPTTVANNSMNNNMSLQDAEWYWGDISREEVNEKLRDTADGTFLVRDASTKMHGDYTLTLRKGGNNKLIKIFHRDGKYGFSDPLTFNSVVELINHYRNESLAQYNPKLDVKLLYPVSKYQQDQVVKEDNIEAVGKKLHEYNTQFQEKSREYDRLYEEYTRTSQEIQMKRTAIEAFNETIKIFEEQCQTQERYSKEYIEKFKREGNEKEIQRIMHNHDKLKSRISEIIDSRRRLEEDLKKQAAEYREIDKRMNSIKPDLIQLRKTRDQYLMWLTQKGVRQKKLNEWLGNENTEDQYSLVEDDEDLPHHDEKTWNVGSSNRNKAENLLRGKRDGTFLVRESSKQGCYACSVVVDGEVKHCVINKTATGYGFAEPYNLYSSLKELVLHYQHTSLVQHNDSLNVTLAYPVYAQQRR

Variant | effect of a mutation on the interaction
T608R | decreasing interaction
